In patent US20180022780A1 (Bayer, published 2018):
Bridge positions count the residues as written; N and C are the ends. Square brackets hold non-standard residues; d marks the D form. Ends that are not written are not given here. Orn = NCCC[C@H](N)C(=O)O; Dap = NC[C@H](N)C(=O)O

B1: [G^14, (Orn^16, D^21)lac]ADM(14-52) (peptide)
peptide: GG[Orn]RFGTDTVQKLAHQIYQFTDKDKDNVAPRSKISPQGY-NH2
modifications: lactam 3-8; N-terminus assumed
SMILES: CC[C@H](C)[C@H](NC(=O)[C@H](CCC(N)=O)NC(=O)[C@H](Cc1c[nH]cn1)NC(=O)[C@H](C)NC(=O)[C@H](CC(C)C)NC(=O)[C@H](CCCCN)NC(=O)[C@H](CCC(N)=O)NC(=O)[C@@H](NC(=O)[C@@H](NC(=O)[C@@H]1CC(=O)NCCC[C@H](NC(=O)CNC(=O)CN)C(=O)N[C@@H](CCCNC(=N)N)C(=O)N[C@@H](Cc2ccccc2)C(=O)NCC(=O)N[C@@H]([C@@H](C)O)C(=O)N1)[C@@H](C)O)C(C)C)C(=O)N[C@@H](Cc1ccc(O)cc1)C(=O)N[C@@H](CCC(N)=O)C(=O)N[C@@H](Cc1ccccc1)C(=O)N[C@H](C(=O)N[C@@H](CC(=O)O)C(=O)N[C@@H](CCCCN)C(=O)N[C@@H](CC(=O)O)C(=O)N[C@@H](CCCCN)C(=O)N[C@@H](CC(=O)O)C(=O)N[C@@H](CC(N)=O)C(=O)N[C@H](C(=O)N[C@@H](C)C(=O)N1CCC[C@H]1C(=O)N[C@@H](CCCNC(=N)N)C(=O)N[C@@H](CO)C(=O)N[C@@H](CCCCN)C(=O)N[C@H](C(=O)N[C@@H](CO)C(=O)N1CCC[C@H]1C(=O)N[C@@H](CCC(N)=O)C(=O)NCC(=O)N[C@@H](Cc1ccc(O)cc1)C(N)=O)[C@@H](C)CC)C(C)C)[C@@H](C)O
B2: [G^14, (Dpr^16, E^21)lac]ADM(14-52) (peptide)
peptide: GG[Dap]RFGTETVQKLAHQIYQFTDKDKDNVAPRSKISPQGY-NH2
modifications: lactam 3-8; N-terminus assumed
SMILES: CC[C@H](C)[C@H](NC(=O)[C@H](CCC(N)=O)NC(=O)[C@H](Cc1c[nH]cn1)NC(=O)[C@H](C)NC(=O)[C@H](CC(C)C)NC(=O)[C@H](CCCCN)NC(=O)[C@H](CCC(N)=O)NC(=O)[C@@H](NC(=O)[C@@H](NC(=O)[C@@H]1CCC(=O)NC[C@H](NC(=O)CNC(=O)CN)C(=O)N[C@@H](CCCNC(=N)N)C(=O)N[C@@H](Cc2ccccc2)C(=O)NCC(=O)N[C@@H]([C@@H](C)O)C(=O)N1)[C@@H](C)O)C(C)C)C(=O)N[C@@H](Cc1ccc(O)cc1)C(=O)N[C@@H](CCC(N)=O)C(=O)N[C@@H](Cc1ccccc1)C(=O)N[C@H](C(=O)N[C@@H](CC(=O)O)C(=O)N[C@@H](CCCCN)C(=O)N[C@@H](CC(=O)O)C(=O)N[C@@H](CCCCN)C(=O)N[C@@H](CC(=O)O)C(=O)N[C@@H](CC(N)=O)C(=O)N[C@H](C(=O)N[C@@H](C)C(=O)N1CCC[C@H]1C(=O)N[C@@H](CCCNC(=N)N)C(=O)N[C@@H](CO)C(=O)N[C@@H](CCCCN)C(=O)N[C@H](C(=O)N[C@@H](CO)C(=O)N1CCC[C@H]1C(=O)N[C@@H](CCC(N)=O)C(=O)NCC(=O)N[C@@H](Cc1ccc(O)cc1)C(N)=O)[C@@H](C)CC)C(C)C)[C@@H](C)O

molecular target: human adrenomedullin-receptor (human, UniProt Q16602 23-461); assay: cell-based or functional assay
Sequence (Q16602 23-461): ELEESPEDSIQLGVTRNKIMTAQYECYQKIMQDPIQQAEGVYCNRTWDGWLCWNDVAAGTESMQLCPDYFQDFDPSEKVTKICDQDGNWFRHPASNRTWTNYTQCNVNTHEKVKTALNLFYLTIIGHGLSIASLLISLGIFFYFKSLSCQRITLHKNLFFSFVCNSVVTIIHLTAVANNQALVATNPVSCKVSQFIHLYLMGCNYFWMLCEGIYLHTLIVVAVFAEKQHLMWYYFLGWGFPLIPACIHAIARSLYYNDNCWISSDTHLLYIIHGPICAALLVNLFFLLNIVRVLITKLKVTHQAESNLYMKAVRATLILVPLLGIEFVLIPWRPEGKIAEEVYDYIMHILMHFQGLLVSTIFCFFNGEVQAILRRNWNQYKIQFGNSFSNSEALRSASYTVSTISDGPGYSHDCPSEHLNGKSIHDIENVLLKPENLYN

Going from GGDRFGT[Orn]TVQKLAHQIYQFTDKDKDNVAPRSKISPQGY-NH2 (lactam 3-8) [[G^14, (D^16, Orn^21)lac]ADM(14-52)] to B1, the “EC50 [nM], aequorin luminescence of CHO adrenomedullin-receptor reporter cells” value rises from 17.3 nM to greater than 1000 nM.

In the case of B2, the “EC50 [nM], aequorin luminescence of CHO adrenomedullin-receptor reporter cells” value is reported as 5.26 nM.

molecular target: CLR fused to EYFP with RAMP2 fused to ECFP; assay: cell-based or functional assay
Sequence (Q16602 whole entry, chain 1 of 2, the tested form may be a part): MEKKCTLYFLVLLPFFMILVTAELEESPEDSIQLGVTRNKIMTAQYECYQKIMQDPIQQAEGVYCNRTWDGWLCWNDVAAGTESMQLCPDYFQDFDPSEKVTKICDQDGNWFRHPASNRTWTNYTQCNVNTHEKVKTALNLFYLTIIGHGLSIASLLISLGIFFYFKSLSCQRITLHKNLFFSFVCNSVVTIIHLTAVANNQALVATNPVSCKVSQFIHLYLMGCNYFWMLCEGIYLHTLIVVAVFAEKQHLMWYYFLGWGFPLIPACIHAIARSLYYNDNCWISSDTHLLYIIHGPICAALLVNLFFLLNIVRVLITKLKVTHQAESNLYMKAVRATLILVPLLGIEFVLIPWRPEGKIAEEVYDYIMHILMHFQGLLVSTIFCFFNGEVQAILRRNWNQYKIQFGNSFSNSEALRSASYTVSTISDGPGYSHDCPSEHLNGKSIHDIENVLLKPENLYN
Sequence (O60895 whole entry, chain 2 of 2, further chain, the tested form may be a part): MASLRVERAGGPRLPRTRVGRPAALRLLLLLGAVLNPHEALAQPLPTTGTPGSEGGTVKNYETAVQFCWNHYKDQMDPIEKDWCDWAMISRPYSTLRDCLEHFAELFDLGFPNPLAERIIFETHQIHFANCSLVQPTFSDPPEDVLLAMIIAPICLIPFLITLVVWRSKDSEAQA

Compared with GGDRFGT[Orn]TVQKLAHQIYQFTDKDKDNVAPRSKISPQGY-NH2 (lactam 3-8) [[G^14, (D^16, Orn^21)lac]ADM(14-52)], B1 is higher in “EC50 [nM], cAMP assay (CRE-luciferase luminescence, HEK293 cells)” value: 20 nM for the first, greater than 1000 nM for the second.

With B2 the “EC50 [nM], cAMP assay (CRE-luciferase luminescence, HEK293 cells)” value was 2.9 nM.
